{"source": "patent US20090253622A1", "about": "“USE OF TLR3 AGONISTS FOR THE TREATMENT OF NEURODEGENERATIVE DISORDERS” (Nederlandse Organisatie voor toegepast - …, priority 2006, published 2009)", "molecules": {"B1": {"name": "clone F5: cDNA clone product with amino acid sequence identical to residues 44-149 of human stathmin (protein)", "chain": "DFSLEEIQKKLEAAEERRKSHEAEVLKQLAEKREHEKEVLQKAIEENNNFSKMAEEKITHKMEANKENREAQMAAKLERLREKDKHIEEVRKNKESKDPADETEAD"}}, "system": "human astrocytes", "assay": "cDNA bank screening: COS-7 transfectant supernatants on human astrocytes, CXCL8 release", "assay_type": "cell-based", "details": "COS-7 supernatant, 48 h", "method": "Cos-7 cells (25,000 cells per well in 96-well plates) were transfected for 5 h with 768 pools of cDNA derived from human brain tumours (5 pooled tumours including meningioma, oligodendroglioma, astrocytoma grades II and IV, and medulloblastoma; NCI CGAP Brn35; Invitrogen) using lipofectamine, after which cells were thoroughly washed. Transfection with green-fluorescent protein-encoding cDNA was used as an internal control for transfection efficiencies. After continued culture of the transfected cells for 48 h, 75 μL of each culture supernatant was harvested and added to cultured human astrocytes seeded at 1,000 cells per well in 75 μL. After 48 h of culture, supernatants were harvested and evaluated for CXCL8 release using ELISA. […]\nA cDNA bank derived from 5 pooled tumours including meningioma, oligodendroglioma, astrocytoma grades II and IV and medulloblastoma was used as a source of sequences potentially encoding an endogenous protein agonist for TLR3. The cDNAs were cloned into plasmid vectors promoting expression and secretion of the cDNA-encoded product by mammalian cells, and these plasmids were transfected into COS-7 cells and evaluated in a two-step approach. […] To monitor such an astrocyte response in this first stage, secretion of CXCL8 was evaluated since this is a sensitive marker for TLR3 activation in these and other cells (cf. FIGS. 9 and 10). […]"}
{"molecule": "B1", "values": [{"measurement": "CXCL8 secretion in astrocytes triggered by cDNA-encoded product", "result": "marked CXCL8 secretion"}]}
